Reference: the DeepSol protein solubility set

Assay: soluble on expression in E. coli; label from the status in PepcDB or PDB records

| Sequence | soluble on expression in E. coli |
| --- | --- |
| MATIIFAGRSNVGKSTLIYRLTGKKVRRGKRPGVTRKIIEIEWKNHKIIDMPGFGFMMGLPKEVQERIKDEIVHFIEDNAKNIDVAVLVVDGKAAPEIIKRWEKRGEIPIDVEFYQFLRELDIPTIVAVNKLDKIKNVQEVINFLAEKFEVPLSEIDKVFIPISAKFGDNIERLKNRIFEVIRERQGRRV | soluble |
| MATKARVMYDFAAEPGNNELTVTEGEIITVTNPNVGGGWLEGKNNKGEQGLVPTDYVEILPNDGKDPFSC | soluble |
| MATKKTFTDETYFKLSEAVYQDGTLNSKKINIELSDRTKSNWKVVSKLNDRATNTQAFAVIPEEKGKDGKIYYNHNNMIFVYRGTKESKDFGSDIINVFAGRNSRTSLDRKSKNPFQVSKEWTEEVLKEFNPKNPTSTGHSLGGALSHYNSILYDFNATTYAAPNIYQLLPEDKQKKVRDGFYNNSIIDFTHDDDMIGTFDQFSSPIIGSQYIAERNNVKVGAKGLFGAIPGHYNETFEGCFSSDGTMKLKVDVDSIIKHAQDIDDIIQSLQTNNADLENLEEKLQIGSKKIQNQLEEEIRIGGAYSELTTWDIDDVLTELCTKYKNGVYCFYNPNEFEKYYEMNHQTRRLLKNFQIELIDAAQSFRETDTRLGKWISNNN | not soluble |
| MATLFIADLHLCVEEPAITAGFLRFLAGEARKADALYILGDLFEAWIGDDDPNPLHRQMAAAIKAVSDSGVPCYFIHGNRDFLLGKRFARESGMTLLPEEKVLELYGRRVLIMHGDTLCTDDAGYQAFRAKVHKPWLQMLFLALPLFVRKRIAARMRANSKEANSSKSLAIMDVNQNAVVSAMEKHQVQWLIHGHTHRPAVHELIANQQPAFRVVLGAWHTEGSMVKVTADDVELIHFPFLEHHHHHH | not soluble |
| MATSSAASVDMEDIQTVDLMSELLRRMKCASKPDKRLVFIGPPGSGKGTQSPVIKDEFCLCHLSTGDMLRAAVAAKTPLGVKAKEAMDKGELVSDDLVVGIMDEAMNRPKCQKGFILDGFPRTVTQAEKLDEMLNRRGAQIDKVLNFAIDDSVLEERITGRWIHPSSGRSYHTKFAPPKVPGVDDLTGEPLIQRKDDNADVLRSRLDAFHKQTQPVIDYYAKKENLVNIPAEKAPEEVTKVVKKVVST | soluble |
| MATTCQKRRYGTFRTGISKPGLSTRRFQHRDFSHGDFGTGTFRTAVSPPLTFSSPPTSTVATPYFPMRFINVKSHVSRPPPLHGDIPIGHEGTRVSRHVDDRCGLVVVSRHGRAGGCLSRLEHHHHHH | not soluble |
| MAVAANKRSVMTLFSGPTDIYSHQVRIVLAEKGVSFEIEHVEKDNPPQDLIDLNPNQSVPTLVDRELTLWESRIIMEYLDERFPHPPLMPVYPVARGESRLYMHRIEKDWYTLMNTIINGSASEADAARKQLREELLAIAPVFGQKPYFLSDEFSLVDCYLAPLLWRLPQLGIEFSGPGAKELKGYMTRVFERDSFLASLTEAEREMRLGRS | soluble |
| MAVAFYIPDQATLLREAEQKEQQILRLRESQWRFLATVVLETLRQYTSCHPKTGRKSGKYRKPSQ | not soluble |
| MAVGLGPLPALHPVPGFELGISSAGIKRPGRKDVVVMRCAEGSSVAGVFTLNAFCAAPVILAKQRVQGTVRYLLTNTGNANAGTGEPGLVAARRTCEALAQLTGVDASAVLPYSTGVIGEPLPVEKIEGALQAALDDLSVDNWAAAATGIMTTDTLPKGASRQFTHDGVTITVTGISKGAGMIRPNMATMLGYIATDAKVSQSVLQDLIRDGANKSFNRLTIDGDTSTNDCCMLIATGQADLPEITEAKGLLFEALKKAVFDVCMEVAQAIVRDGEGATKFVTVEVNGGGNHQECLDVGYAVAHSPLIKTALFASDPNWGRILAAVGRAGVPDLDVSKIDVFLGGVCIASQGCRATTYTEEQGSAVMAEAEITIRIELGRGDCSETIWTTDLSHEYVKINAEYRTLEHHHHHH | not soluble |
| MAVKRPVRVLVNMDGVLADFESGLLQGFRRRFPEEPHVPLEQRRGFLANEQYGALRPDLAEKVASVYESPGFFLNLEPIPGALDALREMNDMKDTEVFICTTPLLKYDHCVGEKYRWVEQNLGPEFVERIILTRDKTVVMGDLLIDDKDNIQGLEETPSWEHILFTCCHNQHLALPPTRRRLLSWSDNWRGIIESKRASL | soluble |
| MAVLAVVLLLACLERAVAQTFGCSNTKINDQARKMFYDAHNDARRSMAKGLEPNKCGLLSGGKNVYELNWDCEMEAKAQEWADGCPSSFQTFDPTWGQNYATYMGSIADPLPYASMAVNGWWSEIRTVGLTDPDNKYTNSAMFRFANMANGKASAFGCAYALCAGKLSINCIYNKIGYMTNAIIYEKGDACTSDAECTTYSDSQCKNGLCYKAPQAPVVETFTMCPSVTDQSDQARQNFLDTHNKLRTSLAKGLEADGIAAGAFAPMAKQMPKLKYSCTVEANARTWAKGCLYQHSTSAQRPGLGENLYMISINNMPKIQTAEDSSKAWWSELKDFGVGSDNILTQAVFDRGVGHYTQMAWEGTTEIGCFVENCPTFTYSVCQYGPAGNYMNQLIYTKGSPCTADADCPGTQTCSVAEALCVIP | not soluble |
| MAVLCGVCGIKEFKYKCPRCLVQTCSLECSKKHKTRDNCSGQTHDPKEYISSEALKQADDDKHERNAYVQRDYNYLTQLKRMVHVQKMDARMKNKRVLGPVGGHNSNFKKRRYDIDEDDRDSTECQRIIRRGVNCLMLPKGMQRSSQNRSKWDKTMDLFVWSVEWILCPMQEKGEKKELFKHVSHRIKETDFLVQGMGKNVFQKCCEFYRLAGTSSCIEGEDGSETKEERTQILQKSGLKFYTKTFPYNTTHIMDSKKLVELAIHEKCIGELLKNTTVIEFPTIFVAMTEADLPEGYEVLHQEPRPLEHTSTLNKFIDNAREEEDAEEDSQPTEEPVQKETQDASDSDSDSDDDYNPGLSMDFLTA | not soluble |
| MAVTEVKLNAPLAVGVWAKMLNTETSKALPIAPLMGKSKNSIIQVLDMLEKSAGDAVTSGLRVQLMGDGVSEGQTLEGNEEALQFMNEKVHINELTHAVRIKYEGSIDQQRIPFSLRQEAKDGLVDWYADRLSLMFFIQAAGYTAPWMQFEGRTITLKPVHYGFNAPSEPSKLRVIRPAKKKTDEELTKEDVFTLDLIDQAVERAKLANPRLRPVRVDGKSAYVMYLHPIQVTQLRTNTKSGQWLDITKAAYDGSGAKNPIFNGSLGMYNGVILREAEHVPNGVNSKTQEPVPSVRRAVLLGAQSIIMAYGRIGNGATGSNEENSETRYKLVEELFDYQREFGLAAKTIIGMKKSRYTLPHSDQGGQDFGTIVIPSFAEAS | not soluble |
| MAVTNVAELNALVERVKKAQREYASFTQEQVDKIFRAAALAAADARIPLAKMAVAESGMGIVEDKVIKNHFASEYIYNAYKDEKTCGVLSEDDTFGTITIAEPIGIICGIVPTTNPTSTAIFKSLISLKTRNAIIFSPHPRAKEATNKAADIVLQAAIAAGAPKDLIGWIDQPSVELSNALMHHPDINLILATGGPGMVKAAYSSGKPAIGVGAGNTPVVIDETADIKRAVASVLMSKTFDNGVICASEQSVVVVDSVYDAVRERFASHGGYMLQGQELKAVQNVILKNGALNAAIVGQPAYKIAELAGFSVPETTKILIGEVTVVDESEPFAHEKLSPTLAMYRAKDFEEAVEKAEKLVAMGGIGHTSCLYTDQDNQPERVAYFGQMMKTARILINTPASQGGIGDLYNFKLAPSLTLGCGSWGGNSISENVGPKHLINKKTVAKRAENMLWHKLPKSIYFRRGSLPIALDEVITDGHKRALIVTDRFLFNNGYADQITSVLKAAGVETEVFFEVEADPTLSVVRKGAELANSFKPDVIIALGGGSPMDAAKIMWVMYEHPETHFEELALRFMDIRKRIYKFPKMGVKAKMIAVTTTSGTGSEVTPFAVVTDDATGQKYPLADYALTPDMAIVDANLVMDMPKSLCAFGGLDAVTHALEAYVSVLASEFSDGQALQALKLLKENLPASYHEGSKNPVARERVHSAATIAGIAFANAFLGVCHSMAHKLGSQFHIPHGLANALLICNVIRYNANDNPTKQTAFSQYDRPQARRRYAEIADHLGLSAPGDRTAAKIEKLLAWLESIKAELGIPKSIREAGVQEADFLAHVDKLSEDAFDDQCTGANPRYPLISELKQILLDTYYGRDFTEGEVAAKKDVVAAPKAEKKAKKSA | soluble |
| MAVYRNVQVNFWQDDFVLDLTPEERYFYVYLLTCSKTTQCGIFPFPKRLAEMETGYNRETVDKLVQRFVDYGKILYDADTRELFVLNWLRYNPVTNTNVEKCVLRELKSVKNKEFVHMFLQKCVEEELNVPMLLAHFGMPSDLAVDDVEPVCEETEAEEEVIEEETGSRVFSFYEQHFGSLSPFAVEELSAWMEDLSEELVLKALQIAFENNKRTVAYVKGILRGWHGKGFTKVCEVEADTAKFRKKESSVSTGETEEFLARCEEWEKNAPSEEELQRFLAERGWRP | not soluble |
| MAYKYDRDLEFLKQLESSDLLDLFEVLVFGKDGEKRHNEKLTSSIEYKRHGDDYAKYAERIAEELQYYGSNSFASFIKGEGVLYKEILCDVCDKLKVNYNKKTETTLIEQNMLSKILERSLEEMDDEEVKEMCDELSIKNTDNLNRQALSAATLTLFKMGGFKSYQLAVIVANAVAKTILGRGLSLAGNQVLTRTLSFLTGPVGWIITGVWTAIDIAGPAYRVTIPACIVVATLRLKTQQANGDKKSLQIESI | not soluble |
| MAYTEEQIENIKTRILTALEEVIDPELGIDIVNLGLIYEIRFDGDTGQTEIDMTLTTMGCPLADLLTDQIYDAMIEVPEVTDTEVKLVWYPAWTVEKMSRYARIALGIK | not soluble |
| MAYWRKWRTSMNLEALPKYYSPKSPKLSDAAPATGSGGLTITDVMAAQGMVQSKAPLGFALFLAKAGVQDPQFAIEGLLNYAMALDNPTLNKLSEEIRLQIIPYLVSFAFADYSRSAASKARCEPCAGTGFHNVLREVVKYSRSGESVIKEEWVKELCQHCHGKGEVSTACRGCKGKGIVLDEKRTRLHGAPVYKICGRCNGNRFSRLPTTLARCHVQKLVPDLTDYQWYKGYADVIDKLVTKCWQEEAYAEVQLRKVTR | not soluble |
| MCGRYALFSTPETLRETFGLTTAPVEPTYNAAPSQSLPVILDTEPTETVRARWGLVPSWSDGPQSAPDPINARAETLTETRHFQAAYEHRRCLVPVDGFYEWRDEDGATVPYFVSRTDGAPFLLAGLWETWTPEQTQTGLGEFTGDDGPSRDPETVRSFTVVTTQPNAFLADYHHRMAVVLTPAQGQRWLTDDDPTDLFTPGAFDLQAWRVSTAVNDPTVDRPALVEPALEHHHHHH | not soluble |
| MCKHCGAAVLFVKDDRWHVFDAKPSEEGEWRIRSRWAANVAAEKTTVTRLTESKLRRARLMGEPLFRPHFQTCPANPRAKILQEKRRHG | not soluble |
| MCMRRTLYRLMIELTNGRFTSYILRKFAQSRLSSIIIPSYVKVFQINQDEMEKGLKEYRTLHELFTRKLKEGKRSIDTDASSIVSPVDGVFADYGPIEDAKTFDIKGKRYSIVDMLGNEERAQRYAGGTYMVIYLSPSHYHRIHSPLSGSVTERFVLGRKSYPVNAAGMEYGKEPLSKNYRSVTEVNSDGEHMALVKVGAMFVNSIELLHERDTVQKGEEMAYFTFGSTVVLLFEKDMIEVVQELKSGQELRLGEKIATRLAHKMAGDPLEHHHHHH | soluble |
| MCPGVMGVGSTQSIVLVPGFPKPSTMNVQWKAEGAASQKDASTHKDWSSQVSSITCKPEKPETLPLGHFINGDFIVIIPAGGRALLSATGNAL | not soluble |
| MCQMPCQFSWPYTHYFTQTKNKEKILNKLIVFTGGPGAGKTSVIEQLKTQGFICAPETGRHVIQMQVANHGSALPWNDKQAFRDEMTKEEVSNYRSFNVRQGDVFFDRSIVDVYGYSKLEQLPISHELITHCQTLRYHSQVFIFPPWASIFSNDEERKQDFSEAVATYQQMVDAYHKFGYQLIEVPKMSVEDRVAFILGSVIELEHHHHHH | soluble |
